Results: patent EP4763867A1 (Shanghai Mabgen Biotech Ltd., dated 2026)
Like-named read-outs stand apart in the source and are kept apart here.

Columns and labels:
[1] = biological target: T1, human PD-1 (SEQ ID NO: 1) expressed on cells (human, UniProt Q15116 25-288); assay: cell-based or functional assay
[2] = biological target: T2, Biotinylated human PD-1 (AcroBiosystems, PD1-H82E4) (human, UniProt Q15116 25-167, biotinylated (site not stated)); assay: screening of a VHH yeast display library with biotinylated antigens
T2 construct: Screening antigen of the yeast display library; also called human PD-1 antigen (screening antigen)

[3] = biological target: T3, IL-2Rβ and IL-2Rγ on M07e cells (moderate-avidity IL-2 receptor IL-2Rβγ) (human, UniProt P14784 27-551; P31785 23-369); assay: cell-based or functional assay
T3 sequence (looked up) 1: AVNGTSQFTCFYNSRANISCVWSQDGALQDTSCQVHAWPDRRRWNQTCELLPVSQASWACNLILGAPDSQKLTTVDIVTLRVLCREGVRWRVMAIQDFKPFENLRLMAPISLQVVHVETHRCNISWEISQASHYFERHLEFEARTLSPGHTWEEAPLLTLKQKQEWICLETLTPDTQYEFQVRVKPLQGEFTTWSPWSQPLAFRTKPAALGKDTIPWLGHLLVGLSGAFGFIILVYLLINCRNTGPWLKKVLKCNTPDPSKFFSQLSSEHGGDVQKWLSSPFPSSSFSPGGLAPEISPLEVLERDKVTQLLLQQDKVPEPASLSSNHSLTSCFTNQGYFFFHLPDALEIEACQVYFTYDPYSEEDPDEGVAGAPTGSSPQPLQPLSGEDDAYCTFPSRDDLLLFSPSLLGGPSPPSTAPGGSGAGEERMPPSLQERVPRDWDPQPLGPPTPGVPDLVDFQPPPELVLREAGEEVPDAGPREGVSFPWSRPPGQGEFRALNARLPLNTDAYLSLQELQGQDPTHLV
T3 sequence (looked up) 2: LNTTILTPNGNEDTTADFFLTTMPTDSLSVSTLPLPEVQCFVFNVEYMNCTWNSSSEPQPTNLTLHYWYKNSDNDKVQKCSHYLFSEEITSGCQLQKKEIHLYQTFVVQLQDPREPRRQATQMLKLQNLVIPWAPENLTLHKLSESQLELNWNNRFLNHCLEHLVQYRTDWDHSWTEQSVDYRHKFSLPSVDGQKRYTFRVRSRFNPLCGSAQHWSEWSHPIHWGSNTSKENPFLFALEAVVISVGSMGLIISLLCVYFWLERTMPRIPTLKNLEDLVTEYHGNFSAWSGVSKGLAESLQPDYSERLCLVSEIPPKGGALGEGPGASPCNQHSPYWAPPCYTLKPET

[4] = biological target: T1, human PD-1 (SEQ ID NO: 1) expressed on …; assay: cell-based or functional assay; remark: listed apart in the source

T1 sequence (Q15116 25-288 limits assumed): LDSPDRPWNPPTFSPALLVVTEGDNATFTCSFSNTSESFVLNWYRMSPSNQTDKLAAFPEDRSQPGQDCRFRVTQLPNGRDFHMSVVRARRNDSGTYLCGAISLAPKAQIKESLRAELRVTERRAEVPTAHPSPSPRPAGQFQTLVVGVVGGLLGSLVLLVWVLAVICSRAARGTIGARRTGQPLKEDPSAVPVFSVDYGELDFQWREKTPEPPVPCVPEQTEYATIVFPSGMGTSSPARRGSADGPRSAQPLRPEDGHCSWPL
T2 sequence (Q15116 25-167 limits assumed): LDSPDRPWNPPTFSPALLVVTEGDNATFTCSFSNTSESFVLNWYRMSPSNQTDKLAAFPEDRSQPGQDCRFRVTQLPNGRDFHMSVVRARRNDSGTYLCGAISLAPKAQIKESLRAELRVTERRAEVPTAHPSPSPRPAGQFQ

B1: A17_hIgG4 (antibody, V domains shown)
VH: EVQVVESGGGLVQPGGSLRLSCVASGLTFSDYSMSWYRQAPGKERELVAIISGSGVIAHYVDSVKGRFTISRDNAKSTVYLQMVSLKPEDRGVYYCRAVSDWDDYWGQGTQVTVSS
activity IC50, PD-1/PD-L1 NFAT reporter gene system [1]: 1.2 nM

B2: A17 (VHH)
VHH: EVQVVESGGGLVQPGGSLRLSCVASGLTFSDYSMSWYRQAPGKERELVAIISGSGVIAHYVDSVKGRFTISRDNAKSTVYLQMVSLKPEDRGVYYCRAVSDWDDYWGQGTQVTVSS
notes: also called Variable region of A17
binding result [2]: binds

B3: PEGylated IL-2 mutant (PEG-IL-2v) (ligand)
chain: APASSSTKKTQLQLEHLLLDLQMILQGISNYKNPKLTRMLTAKFYMPKKATELKHLQCLEEELKPLEEVLQGAQSKNFHLRPRDLISNINVIVLELKGSETTFMCEYADETATIVEFLNRWITFAQSIISTLT
modifications: PEGylated (site and PEG not stated)
M07e proliferation, EC50 [3]: 20.9 nM | M07e-hPD1 proliferation, EC50 [3]: 13.3 nM

B4: A17m0902_hIgG4 (antibody, V domains shown)
VH: EVQLVESGGGLVQPGGSLRLSCAASGLTFSDYSMSWYRQAPGKGRELVAIISGSGVITHYVDSVKGRFTISRDNAKNTLYLQMRSLRAEDTAVYYCRAVSDWEDYWGQGTQVTVSS
activity IC50, PD-1/PD-L1 NFAT reporter gene system [4]: 0.435 nM
